Results on 13 molecules are retold here after US20240270821A1, “GIP/GLP1/GCG TRI-RECEPTOR AGONISTS AND USES THEREOF” (priority 2023, published 2024).

First the molecules themselves.
B1: Example 1135 (peptide)
chain: YXQGTFTSDXXIXLDXKAQXQFIQXLIEXGPSSGAPPPSGGGE
modifications: not fully specified; N-methyl Tyr, non-natural residues, acylation, C-terminal amide; synthetic construct; SITE 1: note = N-methyl-tyrosine; SITE 2: note = 2-Aminoisobutyric Acid; SITE 10: note = 3-(4-Pyridyl)-L-alanine; SITE 11: note = alpha-methyl-L-serine; SITE 13: note = alpha-methyl-leucine; SITE 16: note = L-ornithine; SITE 17: note = Lysine is chemically modified through conju
B2: Example 1110 (peptide)
chain: YXQGTFTSDXSQXLDXKAQXAFIEXLIAXGPSSGAPPPSGSEE
modifications: non-natural residues, acylated Lys, C-terminal amide; synthetic construct; SITE 2: note = 2-Aminoisobutyric Acid; SITE 10: note = 3-(4-Pyridyl)-L-alanine; SITE 13: note = alpha-methyl-leucine; SITE 16: note = L-ornithine; SITE 17: note = Lysine is chemically modified through conjugation of the epsilon-amino group of the Lysine side chain with (2-[2-(2-
B3: Example 1120 (peptide)
chain: YXQGTFTSDXSQXLDKKAQXAFIEXLIEXGPSSGAPPPSGE
modifications: Aib, 4Pal, αMeL, Me4Pal; acylated K; C-terminal amide; synthetic construct; SITE 2: note = 2-Aminoisobutyric Acid; SITE 10: note = 3-(4-Pyridyl)-L-alanine; SITE 13: note = alpha-methyl-leucine; SITE 17: note = Lysine is chemically modified through conjugation of the epsilon-amino group of the Lysine side chain with (gamma-Glu)2-CO-(CH2)16-CO2H; SITE 20:
B4: Example 247 (peptide)
chain: B3 chain with X10F, Q12X, X25Y, I27L, P31H
modifications: non-natural residues; lipidated Lys AEEA-γGlu-C18 diacid; C-term amide; synthetic construct; SITE 2: note = 2-Aminoisobutyric Acid; SITE 12: note = L-ornithine; SITE 13: note = alpha-methyl-leucine; SITE 17: note = Lysine is chemically modified through conjugation of the epsilon-amino group of the Lysine side chain with (2-[2-(2-Amino-ethoxy)-ethoxy]-acetyl)-(gamma-Glu)
B5: Example 266 (peptide)
chain: B3 chain with X10F, Q12X, X25W, I27L, P31H
modifications: Aib, Orn, αMeL; K acylated with (AEEA)2-γGlu-C18 diacid; C-amide; synthetic construct; SITE 2: note = 2-Aminoisobutyric Acid; SITE 12: note = L-ornithine; SITE 13: note = alpha-methyl-leucine; SITE 17: note = Lysine is chemically modified through conjugation of the epsilon-amino group of the Lysine side chain with (2-[2-(2-Amino-ethoxy)-ethoxy]-acetyl)2-(gamma-Glu)
B6: Example 1116 (peptide)
chain: YXQGTFTSDXSQXLDKKAQXAFIEXLIEXGPSSGAPPPSGTE
modifications: acylated Lys AEEA-γGlu-C18 diacid; non-natural residues; C-terminal amide; synthetic construct; SITE 2: note = 2-Aminoisobutyric Acid; SITE 10: note = 3-(4-Pyridyl)-L-alanine; SITE 13: note = alpha-methyl-leucine; SITE 17: note = Lysine is chemically modified through conjugation of the epsilon-amino group of the Lysine side chain with (2-[2-(2-Amino-ethoxy)-ethoxy]-acetyl)
B7: Example 1126 (peptide)
chain: B6 chain with X25Y
modifications: non-natural residues; (γGlu)2-C18 diacid on Lys; C-terminal amide; synthetic construct; SITE 2: note = 2-Aminoisobutyric Acid; SITE 10: note = 3-(4-Pyridyl)-L-alanine; SITE 13: note = alpha-methyl-leucine; SITE 17: note = Lysine is chemically modified through conjugation of the epsilon-amino group of the Lysine side chain with (gamma-Glu)2-CO-(CH2)16-CO2H; SITE 20:
B8: Example 1121 (peptide)
chain: B6 chain with T41E
modifications: Aib, 4Pal, αMeL, Me4Pal, acylated K, C-terminal amide; synthetic construct; SITE 2: note = 2-Aminoisobutyric Acid; SITE 10: note = 3-(4-Pyridyl)-L-alanine; SITE 13: note = alpha-methyl-leucine; SITE 17: note = Lysine is chemically modified through conjugation of the epsilon-amino group of the Lysine side chain with (gamma-Glu)2-CO-(CH2)16-CO2H; SITE 20:
B9: Example 1118 (peptide)
chain: B6 chain
modifications: Lys acylated with (γGlu)2-C18 diacid; non-natural residues; C-amide; synthetic construct; SITE 2: note = 2-Aminoisobutyric Acid; SITE 10: note = 3-(4-Pyridyl)-L-alanine; SITE 13: note = alpha-methyl-leucine; SITE 17: note = Lysine is chemically modified through conjugation of the epsilon-amino group of the Lysine side chain with (gamma-Glu)2-CO-(CH2)16-CO2H; SITE 20:
B10: Example 1142 (peptide)
chain: YXQGTXTSDXXIXLDXKAQXEFIEXLIEGGPSSGAPPPTGE
modifications: Aib, αMeF(2F), 4Pal, αMeS, αMeL, Orn, Me4Pal, αMeY, acyl, amide; synthetic construct; SITE 2: note = 2-Aminoisobutyric Acid; SITE 6: note = alpha-methyl-2-fluoro-L-phenylalanine; SITE 10: note = 3-(4-Pyridyl)-L-alanine; SITE 11: note = alpha-methyl-L-serine; SITE 13: note = alpha-methyl-leucine; SITE 16: note = L-ornithine; SITE 17: note = Lysine is chemically mo
B11: Example 1144 (peptide)
chain: B10 chain with T39G
modifications: non-natural residues; K acylated AEEA-γGlu-C18 diacid; C-amide; synthetic construct; SITE 2: note = 2-Aminoisobutyric Acid; SITE 6: note = alpha-methyl-2-fluoro-L-phenylalanine; SITE 10: note = 3-(4-Pyridyl)-L-alanine; SITE 11: note = alpha-methyl-L-serine; SITE 13: note = alpha-methyl-leucine; SITE 16: note = L-ornithine; SITE 17: note = Lysine is chemically mo
B12: Example 1146 (peptide)
chain: B10 chain with T39E, G40S
modifications: non-natural residues, acylated Lys, C-terminal amide; synthetic construct; SITE 2: note = 2-Aminoisobutyric Acid; SITE 6: note = alpha-methyl-2-fluoro-L-phenylalanine; SITE 10: note = 3-(4-Pyridyl)-L-alanine; SITE 11: note = alpha-methyl-L-serine; SITE 13: note = alpha-methyl-leucine; SITE 16: note = L-ornithine; SITE 17: note = Lysine is chemically mo
B13: Example 1148 (peptide)
chain: B10 chain with T39E
modifications: non-natural residues, AEEA-γGlu-diacid acylated Lys, C-terminal amide; synthetic construct; SITE 2: note = 2-Aminoisobutyric Acid; SITE 6: note = alpha-methyl-2-fluoro-L-phenylalanine; SITE 10: note = 3-(4-Pyridyl)-L-alanine; SITE 11: note = alpha-methyl-L-serine; SITE 13: note = alpha-methyl-leucine; SITE 16: note = L-ornithine; SITE 17: note = Lysine is chemically mo

Where a chain is given by its changes, count along the chain named.

human glucagon receptor (human), sequence (P47871 26-477): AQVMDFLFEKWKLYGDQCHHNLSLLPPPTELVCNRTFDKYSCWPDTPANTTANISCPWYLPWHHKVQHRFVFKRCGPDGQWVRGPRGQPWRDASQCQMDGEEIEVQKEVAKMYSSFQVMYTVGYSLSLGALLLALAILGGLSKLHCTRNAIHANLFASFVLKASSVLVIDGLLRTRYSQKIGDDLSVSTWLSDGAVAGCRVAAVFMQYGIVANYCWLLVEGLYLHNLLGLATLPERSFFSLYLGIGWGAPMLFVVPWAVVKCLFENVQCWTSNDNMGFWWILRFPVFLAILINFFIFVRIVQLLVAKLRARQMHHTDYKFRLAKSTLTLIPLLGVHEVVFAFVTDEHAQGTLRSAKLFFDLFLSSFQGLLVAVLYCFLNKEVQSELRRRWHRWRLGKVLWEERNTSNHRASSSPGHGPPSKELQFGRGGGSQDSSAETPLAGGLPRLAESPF
hGLP-1R, sequence (P43220 24-463): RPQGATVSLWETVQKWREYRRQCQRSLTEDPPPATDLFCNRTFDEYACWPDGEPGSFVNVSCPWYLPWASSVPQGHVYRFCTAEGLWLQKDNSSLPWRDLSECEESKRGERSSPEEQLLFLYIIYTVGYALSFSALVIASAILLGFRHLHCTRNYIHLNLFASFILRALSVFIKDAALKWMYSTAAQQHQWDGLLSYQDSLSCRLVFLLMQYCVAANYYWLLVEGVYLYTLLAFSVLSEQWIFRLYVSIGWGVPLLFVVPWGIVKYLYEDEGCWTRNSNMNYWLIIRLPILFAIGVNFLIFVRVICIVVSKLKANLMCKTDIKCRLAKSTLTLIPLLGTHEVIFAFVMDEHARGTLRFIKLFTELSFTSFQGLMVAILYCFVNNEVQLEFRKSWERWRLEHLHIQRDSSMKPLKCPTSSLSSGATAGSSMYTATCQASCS

One test addresses hGLP-1R (Homo sapiens, UniProt P43220). As to the kind of experiment: cell-based or functional assay.
B1 showed a Relative cAMP EC50 of 0.746 nM.

For the molecule B2, the Relative cAMP EC50 worked out at 0.508 nM.

B3 registered a Relative cAMP EC50 of 4.5 nM.

As to B4, the cAMP Rel EC50 (in the presence of 1% HSA) is 291 nM.

Regarding B5, the cAMP Rel EC50 (in the presence of 1% HSA) was 583 nM.

As for B6, the Relative cAMP EC50 worked out at 4.63 nM.

In the case of B7, the Relative cAMP EC50 was found to be 4.56 nM.

B8 had a Relative cAMP EC50 of 5.23 nM.

Turning to B9, the Relative cAMP EC50 was found to be 5.42 nM.

The molecule B10 registered a Relative cAMP EC50 of 0.329 nM.

In the case of B11, the Relative cAMP EC50 was 0.282 nM.

Take B12: the Relative cAMP EC50 came out at 0.281 nM.

For the molecule B13, the Relative cAMP EC50 came out at 0.299 nM.

The target of another test is T1, human GIP receptor (human) (UniProt P48546).
T1 sequence (looked up): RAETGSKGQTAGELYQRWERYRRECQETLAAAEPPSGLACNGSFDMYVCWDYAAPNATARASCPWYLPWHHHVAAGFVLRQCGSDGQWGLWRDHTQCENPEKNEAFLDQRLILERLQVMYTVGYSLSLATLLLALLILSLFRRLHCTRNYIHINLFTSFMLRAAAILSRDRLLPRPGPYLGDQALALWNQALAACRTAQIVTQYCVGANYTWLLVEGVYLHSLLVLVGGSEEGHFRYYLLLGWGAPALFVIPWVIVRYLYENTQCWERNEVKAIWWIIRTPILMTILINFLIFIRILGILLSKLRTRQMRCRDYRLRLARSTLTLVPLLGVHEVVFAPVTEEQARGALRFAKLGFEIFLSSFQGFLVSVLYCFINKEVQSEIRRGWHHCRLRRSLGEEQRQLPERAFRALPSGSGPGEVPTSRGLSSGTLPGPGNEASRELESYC
Kind of test: cell-based or functional assay.
B1 gave a Relative cAMP EC50 of 0.0126 nM.

With B2, the Relative cAMP EC50 was 0.059 nM.

In the case of B3, the Relative cAMP EC50 amounted to 0.096 nM.

As to B4, the cAMP Rel EC50 (in the presence of 1% HSA) is 12.9 nM.

Take B5: the cAMP Rel EC50 (in the presence of 1% HSA) was 17.3 nM.

Molecule B6 had a Relative cAMP EC50 of 0.134 nM.

For B7, the Relative cAMP EC50 came to 0.174 nM.

As for B8, the Relative cAMP EC50 was determined as 0.115 nM.

As to B9, the Relative cAMP EC50 turned out to be 0.128 nM.

B10 showed a Relative cAMP EC50 of 0.00706 nM.

For B11, the Relative cAMP EC50 turned out to be 0.00649 nM.

Turning to B12, the Relative cAMP EC50 came to 0.00628 nM.

B13 came in with a Relative cAMP EC50 of 0.00801 nM.

The next test has as its target human glucagon receptor (human) (UniProt P47871). As to the kind of experiment: cell-based or functional assay.
B1 displayed a Relative cAMP EC50 of 1.76 nM.

For the molecule B2, the Relative cAMP EC50 turned out to be 5.91 nM.

In turn, B3 yielded a Relative cAMP EC50 of 5.17 nM.

As to B4, the cAMP Rel EC50 (in the presence of 1% HSA) worked out at 443 nM.

Take B5: the cAMP Rel EC50 (in the presence of 1% HSA) was determined as 923 nM.

As to B6, the Relative cAMP EC50 came out at 8.2 nM.

On to B7, for which the Relative cAMP EC50 is 3.92 nM.

The molecule B8 yielded a Relative cAMP EC50 of 8.83 nM.

Consider B9, for which the Relative cAMP EC50 was found to be 6.52 nM.

On to B10, for which the Relative cAMP EC50 was found to be 1.34 nM.

For B11, the Relative cAMP EC50 was 1.32 nM.

B12 had a Relative cAMP EC50 of 1.22 nM.

In turn, B13 yielded a Relative cAMP EC50 of 1.6 nM.
